Numbered stars: 1 amine (or outer) side, 2 acyl side, 3 side chain; on linkers, the order of the positions; unused ones are H or OH. Bridge positions count the residues as written; N and C are the ends. Side chains are listed from the residue outwards. Ends that are not written are not given here. * marks the point of attachment. C20 diacid = O=C(O)CCCCCCCCCCCCCCCCCCC(=O)*; γGlu = O=C(O)[C@H](CCC(=O)[*:2])N[*:1]

The record followed here is US20140087995A1 (published 2014).

The target in assay [1] is T1, human amylin 3(a) receptor (human calcitonin receptor + RAMP-3) (human, UniProt P30988 25-474; O60896 24-148, limits assumed).
T1 sequence (looked up) 1: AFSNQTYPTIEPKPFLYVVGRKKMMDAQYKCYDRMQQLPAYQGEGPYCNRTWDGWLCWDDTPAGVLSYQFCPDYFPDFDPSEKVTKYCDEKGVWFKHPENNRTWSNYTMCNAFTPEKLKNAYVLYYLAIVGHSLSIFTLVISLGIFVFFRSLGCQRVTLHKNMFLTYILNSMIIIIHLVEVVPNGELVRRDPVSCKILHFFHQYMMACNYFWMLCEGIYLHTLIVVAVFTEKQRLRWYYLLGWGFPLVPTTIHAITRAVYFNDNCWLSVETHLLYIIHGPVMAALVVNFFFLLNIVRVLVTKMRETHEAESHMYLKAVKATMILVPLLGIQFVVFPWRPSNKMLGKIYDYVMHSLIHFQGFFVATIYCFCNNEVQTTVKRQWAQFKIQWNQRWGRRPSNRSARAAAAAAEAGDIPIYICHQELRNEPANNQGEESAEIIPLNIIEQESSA
T1 sequence (looked up) 2: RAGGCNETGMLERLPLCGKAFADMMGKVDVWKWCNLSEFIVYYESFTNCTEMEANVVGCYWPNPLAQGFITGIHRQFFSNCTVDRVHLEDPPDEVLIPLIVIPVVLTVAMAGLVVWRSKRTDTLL
Kind of assay: cell-based or functional assay.

The target in assay [2] is T2, human calcitonin receptor (human, UniProt P30988 25-474).
T2 sequence (looked up): T1 sequence (looked up) 1
Kind of assay: cell-based or functional assay.

B1: N^α1-[(4S)-4-carboxy-4-(19-carboxynonadecanoylamino)butanoyl]-[Glu14,Arg17,Pro21,Pro27,Pro29]-h-amylin (peptide)
peptide: {C20 diacid-γGlu}-KCNTATCATQRLAEFLRHSSPNFGAIPSPTNVGSNTY-NH2
modifications: disulfide 2-7
SMILES: CC[C@H](C)[C@H](NC(=O)[C@H](C)NC(=O)CNC(=O)[C@H](Cc1ccccc1)NC(=O)[C@H](CC(N)=O)NC(=O)[C@@H]1CCCN1C(=O)[C@H](CO)NC(=O)[C@H](CO)NC(=O)[C@H](Cc1c[nH]cn1)NC(=O)[C@H](CCCNC(=N)N)NC(=O)[C@H](CC(C)C)NC(=O)[C@H](Cc1ccccc1)NC(=O)[C@H](CCC(=O)O)NC(=O)[C@H](C)NC(=O)[C@H](CC(C)C)NC(=O)[C@H](CCCNC(=N)N)NC(=O)[C@H](CCC(N)=O)NC(=O)[C@@H](NC(=O)[C@H](C)NC(=O)[C@@H]1CSSC[C@H](NC(=O)[C@H](CCCCN)NC(=O)CC[C@H](NC(=O)CCCCCCCCCCCCCCCCCCC(=O)O)C(=O)O)C(=O)N[C@@H](CC(N)=O)C(=O)N[C@@H]([C@@H](C)O)C(=O)N[C@@H](C)C(=O)N[C@@H]([C@@H](C)O)C(=O)N1)[C@@H](C)O)C(=O)N1CCC[C@H]1C(=O)N[C@@H](CO)C(=O)N1CCC[C@H]1C(=O)N[C@H](C(=O)N[C@@H](CC(N)=O)C(=O)N[C@H](C(=O)NCC(=O)N[C@@H](CO)C(=O)N[C@@H](CC(N)=O)C(=O)N[C@H](C(=O)N[C@@H](Cc1ccc(O)cc1)C(N)=O)[C@@H](C)O)C(C)C)[C@@H](C)O
notes: also called compound 37
As to B1, in assay [1], the “hAmylin-R funct. EC50 (pM)” value was 92 pM. The “Ratio hCT/hAmylin funct.” value in assay [2] amounted to 4.

B2: N^ε1-[(4S)-4-carboxy-4-(19-carboxynonadecanoylamino)butanoyl]-[His14,Arg17,Pro21,Pro27,Pro31,Pro34]-h-amylin (peptide)
peptide: K([γGlu-C20 diacid])CNTATCATQRLAHFLRHSSPNFGAIPSSTPVGPNTY-NH2
modifications: disulfide 2-7; N-terminus assumed
SMILES: CC[C@H](C)[C@H](NC(=O)[C@H](C)NC(=O)CNC(=O)[C@H](Cc1ccccc1)NC(=O)[C@H](CC(N)=O)NC(=O)[C@@H]1CCCN1C(=O)[C@H](CO)NC(=O)[C@H](CO)NC(=O)[C@H](Cc1c[nH]cn1)NC(=O)[C@H](CCCNC(=N)N)NC(=O)[C@H](CC(C)C)NC(=O)[C@H](Cc1ccccc1)NC(=O)[C@H](Cc1c[nH]cn1)NC(=O)[C@H](C)NC(=O)[C@H](CC(C)C)NC(=O)[C@H](CCCNC(=N)N)NC(=O)[C@H](CCC(N)=O)NC(=O)[C@@H](NC(=O)[C@H](C)NC(=O)[C@@H]1CSSC[C@H](NC(=O)[C@@H](N)CCCCNC(=O)CC[C@H](NC(=O)CCCCCCCCCCCCCCCCCCC(=O)O)C(=O)O)C(=O)N[C@@H](CC(N)=O)C(=O)N[C@@H]([C@@H](C)O)C(=O)N[C@@H](C)C(=O)N[C@@H]([C@@H](C)O)C(=O)N1)[C@@H](C)O)C(=O)N1CCC[C@H]1C(=O)N[C@@H](CO)C(=O)N[C@@H](CO)C(=O)N[C@H](C(=O)N1CCC[C@H]1C(=O)N[C@H](C(=O)NCC(=O)N1CCC[C@H]1C(=O)N[C@@H](CC(N)=O)C(=O)N[C@H](C(=O)N[C@@H](Cc1ccc(O)cc1)C(N)=O)[C@@H](C)O)C(C)C)[C@@H](C)O
Take B2: the “hAmylin-R funct. EC50 (pM)” value in assay [1] was 71 pM. For the same molecule, the “Ratio hCT/hAmylin funct.” value in assay [2] was 4.9.

B3: N^ε1-[(4S)-4-carboxy-4-(19-carboxynonadecanoylamino)butanoyl]-[Asp14,Arg17,Pro21,Pro27,Pro34,Glu35]-h-amylin (peptide)
peptide: K([γGlu-C20 diacid])CNTATCATQRLADFLRHSSPNFGAIPSSTNVGPETY-NH2
modifications: disulfide 2-7; N-terminus assumed
SMILES: CC[C@H](C)[C@H](NC(=O)[C@H](C)NC(=O)CNC(=O)[C@H](Cc1ccccc1)NC(=O)[C@H](CC(N)=O)NC(=O)[C@@H]1CCCN1C(=O)[C@H](CO)NC(=O)[C@H](CO)NC(=O)[C@H](Cc1c[nH]cn1)NC(=O)[C@H](CCCNC(=N)N)NC(=O)[C@H](CC(C)C)NC(=O)[C@H](Cc1ccccc1)NC(=O)[C@H](CC(=O)O)NC(=O)[C@H](C)NC(=O)[C@H](CC(C)C)NC(=O)[C@H](CCCNC(=N)N)NC(=O)[C@H](CCC(N)=O)NC(=O)[C@@H](NC(=O)[C@H](C)NC(=O)[C@@H]1CSSC[C@H](NC(=O)[C@@H](N)CCCCNC(=O)CC[C@H](NC(=O)CCCCCCCCCCCCCCCCCCC(=O)O)C(=O)O)C(=O)N[C@@H](CC(N)=O)C(=O)N[C@@H]([C@@H](C)O)C(=O)N[C@@H](C)C(=O)N[C@@H]([C@@H](C)O)C(=O)N1)[C@@H](C)O)C(=O)N1CCC[C@H]1C(=O)N[C@@H](CO)C(=O)N[C@@H](CO)C(=O)N[C@H](C(=O)N[C@@H](CC(N)=O)C(=O)N[C@H](C(=O)NCC(=O)N1CCC[C@H]1C(=O)N[C@@H](CCC(=O)O)C(=O)N[C@H](C(=O)N[C@@H](Cc1ccc(O)cc1)C(N)=O)[C@@H](C)O)C(C)C)[C@@H](C)O
Turning to B3, the “hAmylin-R funct. EC50 (pM)” value in assay [1] worked out at 288 pM. In assay [2], the “Ratio hCT/hAmylin funct.” value amounted to 3.9 and the “hCTR funct. EC50 (pM)” value was 1120 pM.

B4: N^α1N^α1-[(4S)-4-carboxy-4-(19-carboxynonadecanoylamino)butanoyl]-[Glu14,Arg17,Pro21,Pro27,Glu35]-h-amylin (peptide)
peptide: {C20 diacid-γGlu}-KCNTATCATQRLAEFLRHSSPNFGAIPSSTNVGSETY-NH2
modifications: disulfide 2-7
SMILES: CC[C@H](C)[C@H](NC(=O)[C@H](C)NC(=O)CNC(=O)[C@H](Cc1ccccc1)NC(=O)[C@H](CC(N)=O)NC(=O)[C@@H]1CCCN1C(=O)[C@H](CO)NC(=O)[C@H](CO)NC(=O)[C@H](Cc1c[nH]cn1)NC(=O)[C@H](CCCNC(=N)N)NC(=O)[C@H](CC(C)C)NC(=O)[C@H](Cc1ccccc1)NC(=O)[C@H](CCC(=O)O)NC(=O)[C@H](C)NC(=O)[C@H](CC(C)C)NC(=O)[C@H](CCCNC(=N)N)NC(=O)[C@H](CCC(N)=O)NC(=O)[C@@H](NC(=O)[C@H](C)NC(=O)[C@@H]1CSSC[C@H](NC(=O)[C@H](CCCCN)NC(=O)CC[C@H](NC(=O)CCCCCCCCCCCCCCCCCCC(=O)O)C(=O)O)C(=O)N[C@@H](CC(N)=O)C(=O)N[C@@H]([C@@H](C)O)C(=O)N[C@@H](C)C(=O)N[C@@H]([C@@H](C)O)C(=O)N1)[C@@H](C)O)C(=O)N1CCC[C@H]1C(=O)N[C@@H](CO)C(=O)N[C@@H](CO)C(=O)N[C@H](C(=O)N[C@@H](CC(N)=O)C(=O)N[C@H](C(=O)NCC(=O)N[C@@H](CO)C(=O)N[C@@H](CCC(=O)O)C(=O)N[C@H](C(=O)N[C@@H](Cc1ccc(O)cc1)C(N)=O)[C@@H](C)O)C(C)C)[C@@H](C)O
notes: also called compound 22
For the molecule B4, the “hAmylin-R funct. EC50 (pM)” value in assay [1] amounted to 270 pM. Also, in assay [2], the “Ratio hCT/hAmylin funct.” value is 3.8.

B5: N^ε1-[(4S)-4-carboxy-4-(19-carboxynonadecanoylamino)butanoyl]-[Ala14,Arg17,Pro21,Pro27,Pro34]-h-amylin (peptide)
peptide: K([γGlu-C20 diacid])CNTATCATQRLAAFLRHSSPNFGAIPSSTNVGPNTY-NH2
modifications: disulfide 2-7; N-terminus assumed
SMILES: CC[C@H](C)[C@H](NC(=O)[C@H](C)NC(=O)CNC(=O)[C@H](Cc1ccccc1)NC(=O)[C@H](CC(N)=O)NC(=O)[C@@H]1CCCN1C(=O)[C@H](CO)NC(=O)[C@H](CO)NC(=O)[C@H](Cc1c[nH]cn1)NC(=O)[C@H](CCCNC(=N)N)NC(=O)[C@H](CC(C)C)NC(=O)[C@H](Cc1ccccc1)NC(=O)[C@H](C)NC(=O)[C@H](C)NC(=O)[C@H](CC(C)C)NC(=O)[C@H](CCCNC(=N)N)NC(=O)[C@H](CCC(N)=O)NC(=O)[C@@H](NC(=O)[C@H](C)NC(=O)[C@@H]1CSSC[C@H](NC(=O)[C@@H](N)CCCCNC(=O)CC[C@H](NC(=O)CCCCCCCCCCCCCCCCCCC(=O)O)C(=O)O)C(=O)N[C@@H](CC(N)=O)C(=O)N[C@@H]([C@@H](C)O)C(=O)N[C@@H](C)C(=O)N[C@@H]([C@@H](C)O)C(=O)N1)[C@@H](C)O)C(=O)N1CCC[C@H]1C(=O)N[C@@H](CO)C(=O)N[C@@H](CO)C(=O)N[C@H](C(=O)N[C@@H](CC(N)=O)C(=O)N[C@H](C(=O)NCC(=O)N1CCC[C@H]1C(=O)N[C@@H](CC(N)=O)C(=O)N[C@H](C(=O)N[C@@H](Cc1ccc(O)cc1)C(N)=O)[C@@H](C)O)C(C)C)[C@@H](C)O
notes: also called compound 94
In the case of B5, the “hAmylin-R funct. EC50 (pM)” value in assay [1] worked out at 70 pM. Further, the “Ratio hCT/hAmylin funct.” value in assay [2] is 4.5.

B6: N^ε1-[(4S)-4-carboxy-4-(19-carboxynonadecanoylamino)butanoyl]-[Glu14,Arg17,Pro21,Pro27,Pro34,Pro37]-h-amylin (peptide)
peptide: K([γGlu-C20 diacid])CNTATCATQRLAEFLRHSSPNFGAIPSSTNVGPNTP-NH2
modifications: disulfide 2-7; N-terminus assumed
SMILES: CC[C@H](C)[C@H](NC(=O)[C@H](C)NC(=O)CNC(=O)[C@H](Cc1ccccc1)NC(=O)[C@H](CC(N)=O)NC(=O)[C@@H]1CCCN1C(=O)[C@H](CO)NC(=O)[C@H](CO)NC(=O)[C@H](Cc1c[nH]cn1)NC(=O)[C@H](CCCNC(=N)N)NC(=O)[C@H](CC(C)C)NC(=O)[C@H](Cc1ccccc1)NC(=O)[C@H](CCC(=O)O)NC(=O)[C@H](C)NC(=O)[C@H](CC(C)C)NC(=O)[C@H](CCCNC(=N)N)NC(=O)[C@H](CCC(N)=O)NC(=O)[C@@H](NC(=O)[C@H](C)NC(=O)[C@@H]1CSSC[C@H](NC(=O)[C@@H](N)CCCCNC(=O)CC[C@H](NC(=O)CCCCCCCCCCCCCCCCCCC(=O)O)C(=O)O)C(=O)N[C@@H](CC(N)=O)C(=O)N[C@@H]([C@@H](C)O)C(=O)N[C@@H](C)C(=O)N[C@@H]([C@@H](C)O)C(=O)N1)[C@@H](C)O)C(=O)N1CCC[C@H]1C(=O)N[C@@H](CO)C(=O)N[C@@H](CO)C(=O)N[C@H](C(=O)N[C@@H](CC(N)=O)C(=O)N[C@H](C(=O)NCC(=O)N1CCC[C@H]1C(=O)N[C@@H](CC(N)=O)C(=O)N[C@H](C(=O)N1CCC[C@H]1C(N)=O)[C@@H](C)O)C(C)C)[C@@H](C)O
As to B6, the “hAmylin-R funct. EC50 (pM)” value in assay [1] is 105 pM. In addition, in assay [2], the “Ratio hCT/hAmylin funct.” value stood at 0.9.
